For experiment [1], the target named is T1, IL6-R on U266 cells (human, UniProt P08887 20-468).
T1 sequence (looked up): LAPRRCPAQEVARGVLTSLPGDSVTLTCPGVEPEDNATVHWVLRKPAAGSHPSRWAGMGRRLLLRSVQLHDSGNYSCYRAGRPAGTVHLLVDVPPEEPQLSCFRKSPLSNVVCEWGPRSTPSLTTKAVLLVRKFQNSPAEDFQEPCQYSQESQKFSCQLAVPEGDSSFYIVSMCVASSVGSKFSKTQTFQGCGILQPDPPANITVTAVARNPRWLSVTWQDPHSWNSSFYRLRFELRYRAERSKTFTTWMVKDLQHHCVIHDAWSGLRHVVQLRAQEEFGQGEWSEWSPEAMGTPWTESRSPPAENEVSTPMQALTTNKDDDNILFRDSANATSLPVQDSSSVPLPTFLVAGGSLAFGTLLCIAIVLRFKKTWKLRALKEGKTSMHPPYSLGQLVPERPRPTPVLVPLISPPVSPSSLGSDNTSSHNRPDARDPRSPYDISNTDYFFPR
Briefly: cell-based or functional assay.

For experiment [2], the target named is T2, Human soluble IL6-R (human, UniProt P08887 20-358).
T2 construct: Bought soluble receptor; biotinylated in some Alphascreen assays; also called sIL6-R; hIL-6R
T2 sequence (looked up): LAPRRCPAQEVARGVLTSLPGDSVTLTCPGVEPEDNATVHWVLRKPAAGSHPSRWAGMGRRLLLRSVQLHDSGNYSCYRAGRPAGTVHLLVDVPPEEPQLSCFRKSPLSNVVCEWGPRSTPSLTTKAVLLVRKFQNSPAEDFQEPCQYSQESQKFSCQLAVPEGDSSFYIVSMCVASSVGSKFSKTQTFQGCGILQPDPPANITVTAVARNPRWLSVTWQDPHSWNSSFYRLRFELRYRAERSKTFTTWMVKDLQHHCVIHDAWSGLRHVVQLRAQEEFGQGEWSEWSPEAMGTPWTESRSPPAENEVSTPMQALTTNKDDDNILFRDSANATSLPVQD
Briefly: SPR (Biacore 3000), IL6-R on CM5 chip. In general terms: Surface plasmon resonance follows binding to a sensor surface in real time, without labels.

For experiment [3], the target named is T2, Human soluble IL6-R. Put plainly: SPR (Biacore 3000), IL6-R on CM5 chip; row without label, read as kd.
Experiment [4] addresses T1, IL6-R on U266 cells. Briefly: cell-based or functional assay. The source holds these as a separate data set.
In experiment [5] the target is T1, IL6-R on U266 cells. Put plainly: cell-based or functional assay. The source holds these as a separate data set.
Experiment [6] deals with T1, IL6-R on U266 cells. Briefly: cell-based or functional assay. The source holds these as a separate data set.
The target of experiment [7] is T2, Human soluble IL6-R. Put plainly: SPR (Biacore), off-rate.
In experiment [8] the target is T2, Human soluble IL6-R. Briefly: SPR (Biacore 3000), IL6-R on CM5 chip. This is another data set of the same source.
The target of experiment [9] is T2, Human soluble IL6-R. Briefly: SPR (Biacore 3000), IL6-R on CM5 chip. The source holds these as a separate data set.
Experiment [10] has as its target T2, Human soluble IL6-R. Put plainly: Alphascreen, 100 nM Nanobody; competitor Reference-Fab on beads.

This note sets out measurements from patent US20140221623A1 (Ablynx, published 2014).

Values joined by “and” are separate entries in the source; they are usually repeats but may differ in a detail not shown here. Equal values may be shown once. Read-outs that look alike come from different tables or passages of the source.

In the experiment with IL6-R on U266 cells [1], MAb BR-6 (antibody) displayed an IC50 (+1% HSA), TF-1 proliferation of 0.088; an IC50 (w/o HSA), TF-1 proliferation of 0.042; an IC50, XG-1 proliferation of 0.064 nM.
Regarding MAb BN-12 (antibody), in the experiment with IL6-R on U266 cells [1], the IC50, XG-1 proliferation came out at 0.272 nM.

B1: IL6R88 (VHH)
VHH: EVQLVESGGGLVQPGGSLRLSCAASGFTFDDYGMSWVRQAPGKGTEWVSAISWNGNNTYYTESMKGRFTISRDNAKNTLYLQMNSLRPEDTAVYYCVKGSTAIVGVPPTYPDEYDYWGQGTLVTVSS
notes: Humanized variant of IL6R13
On to B1, for which, in the experiment with Human soluble IL6-R [2], the Kd (commonly a measure of binding affinity in units of concentration) amounted to 0.9 nM; the koff (as a rule, a measure of how fast the partners let go of each other) was 0.00031 s⁻¹; the kon (in general, a measure of how fast the partners come together) is 230000 M⁻¹ s⁻¹. This molecule returned an off-rate (koff) in the experiment with Human soluble IL6-R [3] of 0.000213 s⁻¹.

B2: IL6R04 (VHH)
VHH: EVQLVESGGGLVQAGGSLRLSCAASGFTFDDYDIGWFRQAPGKEREGVSGISSSDGNTYYADSVKGRFTISSDNAKNTVYLQMNSLKPEDTAVYYCAAEPPDSSWYLDGSPEFFKYWGQGTQVTVSS
notes: also called PMP32C9; PMP 32 C9
Regarding B2, the “IC50, XG-1 proliferation” value with IL6-R on U266 cells [4] is 0.089 nM. For the same molecule, the “IC50, TF-1 proliferation” value with IL6-R on U266 cells [5] was determined as 0.545 nM. Moreover, the “IC50, XG-1 proliferation with 1 mg/mL human serum albumin” value with IL6-R on U266 cells [6] is 0.099 nM. The koff in the experiment with Human soluble IL6-R [7] was 0.00015 s⁻¹. In the experiment with Human soluble IL6-R [8], binding was characterised by a dissociation constant (Kd) of 0.26 nM; the koff was 9.42e-05 s⁻¹ and 0.00015 s⁻¹; the kon came to 365000 M⁻¹ s⁻¹. For the same molecule, in the experiment with Human soluble IL6-R [9], the Kd turned out to be 0.2 nM, the koff was found to be 0.000112 s⁻¹ and the kon amounted to 536000 M⁻¹ s⁻¹. For the same molecule, in the experiment with Human soluble IL6-R [10], the “% binding retained in competition with Reference-Fab” value came out at 50%.

B3: IL6R09 (VHH)
VHH: EVQLVESGGGLVQAGGSLRLSCAASGRTSSSYDMTWYRQVPGKEREFVAVISWSGGSTYYADSVKGRFTISRDNAKNTVYLQMNSLKPEDTAIYYCNAYTGGGDDYWGQGTQVTVSS
notes: also called PMP34G9; PMP 34 G9
Regarding B3, the “IC50, XG-1 proliferation” value with IL6-R on U266 cells [4] amounted to 2.75 nM. Also, in the experiment with IL6-R on U266 cells [5], the “IC50, TF-1 proliferation” value worked out at 10 nM. The “IC50, XG-1 proliferation with 1 mg/mL human serum albumin” value with IL6-R on U266 cells [6] was 2.98 nM. In the experiment with Human soluble IL6-R [7], this molecule displayed a koff of 0.00139 s⁻¹. Further, in the experiment with Human soluble IL6-R [8], the Kd was 2.01 nM and 1.17 nM; the dissociation rate constant (koff) was 0.0013 s⁻¹ and 0.00139 s⁻¹ and 0.00129 s⁻¹; the kon is 641000 M⁻¹ s⁻¹ and 1.11e+06 M⁻¹ s⁻¹. In addition, the “% binding retained in competition with Reference-Fab” value with Human soluble IL6-R [10] was 62%.
